In publication PMC6747709 (2019):
Like-named read-outs stand apart in the source and are kept apart here. Values belong to the binder of their own block, whether it stands above or below them.

Assays:
Assay in all cases: SPR
[1] = target: T1, CD47 extracellular domain (UniProt Q08722, biotin (enzymatically biotinylated; stated for the SPR experiment))
[2] = target: T1, CD47 extracellular domain; remark: listed apart in the source
[3] = target: T1, CD47 extracellular domain; remark: listed apart in the source
[4] = target: T1, CD47 extracellular domain; remark: listed apart in the source
[5] = target: T1, CD47 extracellular domain; remark: listed apart in the source
[6] = target: T1, CD47 extracellular domain; remark: listed apart in the source

T1 sequence (Q08722 19-141): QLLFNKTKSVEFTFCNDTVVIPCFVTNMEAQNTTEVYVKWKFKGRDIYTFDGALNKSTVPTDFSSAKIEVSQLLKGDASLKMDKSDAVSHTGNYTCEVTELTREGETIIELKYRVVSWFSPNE

B1: Nb02 mutant M4 (VHH)
VHH: EVQLQASGGGLVQAGGSLRLSCAASGFTNERSQNMGWFRQAPGKEREGVACIQSRVVECWYADSVKGRFTISRDNAKNTVYLQMNSLKPEDTAVYYCAAPRAITGHSAVGEHMCDYWGQGTQVTVSS
koff [1]: 0.000392 s⁻¹

B2: Nb02 mutant M2 (VHH)
VHH: EVQLQASGGGLVQAGGSLRLSCAASGFTNERSQNMGWFRQAPGKEREGVACIQSRVVECWYADSVKGRFTISRDNAKNTVYLQMNSLKPEDTAVYYCAAPRAITWTVFVGEHMCDYWGQGTQVTVSS
koff [2]: 2.73e-05 s⁻¹

B3: Nb02 mutant M1 (VHH)
VHH: EVQLQASGGGLVQAGGSLRLSCAASGFTNERSQNMGWFRQAPGKEREGVACIQSRVVECWYADSVKGRFTISRDNAKNTVYLQMNSLKPEDTAVYYCAAPRAITWHSFVGEHMCDYWGQGTQVTVSS
koff [3]: 0.000126 s⁻¹

B5: Nb02 mutant M3 (VHH)
VHH: EVQLQASGGGLVQAGGSLRLSCAASGFTNERSQNMGWFRQAPGKEREGVACIQSRVVECWYADSVKGRFTISRDNAKNTVYLQMNSLKPEDTAVYYCAAPRAITGHVFVGEHMCDYWGQGTQVTVSS
koff [5]: 0.000312 s⁻¹

Other lines, results leading:

koff [4]: 4.04e-05 s⁻¹
B4: Nb02 quadruple mutant M7 (G107W, T108H, S109V, F110A) (VHH)
VHH: EVQLQASGGGLVQAGGSLRLSCAASGFTNERSQNMGWFRQAPGKEREGVACISSRVVECWYADSVKGRFTISRDNAKNTVYLQMNSLKPEDTAVYYCAAPRAITWHVAVGEHMCDYWGQGTQVTVSS

koff [6]: 0.000117 s⁻¹
B6: Nb02 mutant M6 (VHH)
VHH: EVQLQASGGGLVQAGGSLRLSCAASGFTNERSQNMGWFRQAPGKEREGVACIQSRVVECWYADSVKGRFTISRDNAKNTVYLQMNSLKPEDTAVYYCAAPRAITWHVFVGEHMCDYWGQGTQVTVSS
